{"source": "paper PMC10980815", "about": "“Cell surface patching via CXCR4-targeted nanothreads for cancer metastasis inhibition” (Nature Communications, 2024)", "test": "Pharmacokinetics at each cycle of a four-round treatment regimen", "format": "in vivo, female mice", "set-up": "PK curves: unit not given here", "conditions": "for AUC0-t / AUC0-∞ / MRT0-t / MRT0-∞ / T1/2z: same", "note": "Ends that are not written are not given here. HPMA copolymer = HPMA copolymer made by RAFT copolymerization of HPMA with N-(3-aminopropyl)methacrylamide (APMA), bearing maleimide groups for grafting", "data": [{"substance": "P-CM2-Cy3: Cy3-labeled P-CM2 (C(HPMA copolymer)YGGEVSALEKEVSALEKKNSALEKEVSALEKEVSALEK; also: Cy3 label on conjugate, position not given here)", "values": [{"measurement": "PK curves", "setting": "Round 3, Time 0.041667 Day, replicate 1", "result": 171.135}, {"measurement": "PK curves", "setting": "Round 3, Time 0.041667 Day, replicate 2", "result": 180.496}, {"measurement": "PK curves", "setting": "Round 3, Time 0.041667 Day, replicate 3", "result": 188.668}, {"measurement": "PK curves", "setting": "Round 3, Time 0.041667 Day, replicate 4", "result": 205.584}, {"measurement": "PK curves", "setting": "Round 3, Time 0.041667 Day, replicate 5", "result": 224.681}, {"measurement": "PK curves", "setting": "Round 3, Time 0.083333 Day, replicate 1", "result": 156.708}, {"measurement": "PK curves", "setting": "Round 3, Time 0.083333 Day, replicate 2", "result": 161.465}, {"measurement": "PK curves", "setting": "Round 3, Time 0.083333 Day, replicate 3", "result": 162.063}, {"measurement": "PK curves", "setting": "Round 3, Time 0.083333 Day, replicate 4", "result": 168.293}, {"measurement": "PK curves", "setting": "Round 3, Time 0.083333 Day, replicate 5", "result": 190.32}, {"measurement": "PK curves", "setting": "Round 3, Time 0.166667 Day, replicate 1", "result": 118.152}, {"measurement": "PK curves", "setting": "Round 3, Time 0.166667 Day, replicate 2", "result": 137.258}, {"measurement": "PK curves", "setting": "Round 3, Time 0.166667 Day, replicate 3", "result": 138.998}, {"measurement": "PK curves", "setting": "Round 3, Time 0.166667 Day, replicate 4", "result": 139.637}, {"measurement": "PK curves", "setting": "Round 3, Time 0.166667 Day, replicate 5", "result": 146.663}, {"measurement": "PK curves", "setting": "Round 3, Time 0.25 Day, replicate 1", "result": 101.928}, {"measurement": "PK curves", "setting": "Round 3, Time 0.25 Day, replicate 2", "result": 105.033}, {"measurement": "PK curves", "setting": "Round 3, Time 0.25 Day, replicate 3", "result": 108.293}, {"measurement": "PK curves", "setting": "Round 3, Time 0.25 Day, replicate 4", "result": 115.298}, {"measurement": "PK curves", "setting": "Round 3, Time 0.25 Day, replicate 5", "result": 119.681}, {"measurement": "PK curves", "setting": "Round 3, Time 0.333333 Day, replicate 1", "result": 71.2229}, {"measurement": "PK curves", "setting": "Round 3, Time 0.333333 Day, replicate 2", "result": 72.9543}, {"measurement": "PK curves", "setting": "Round 3, Time 0.333333 Day, replicate 3", "result": 93.0071}, {"measurement": "PK curves", "setting": "Round 3, Time 0.333333 Day, replicate 4", "result": 101.069}, {"measurement": "PK curves", "setting": "Round 3, Time 0.333333 Day, replicate 5", "result": 102.809}, {"measurement": "PK curves", "setting": "Round 3, Time 0.5 Day, replicate 1", "result": 54.5332}, {"measurement": "PK curves", "setting": "Round 3, Time 0.5 Day, replicate 2", "result": 55.1656}, {"measurement": "PK curves", "setting": "Round 3, Time 0.5 Day, replicate 3", "result": 58.857}, {"measurement": "PK curves", "setting": "Round 3, Time 0.5 Day, replicate 4", "result": 63.5997}, {"measurement": "PK curves", "setting": "Round 3, Time 0.5 Day, replicate 5", "result": 67.2877}, {"measurement": "PK curves", "setting": "Round 3, Time 1 Day, replicate 1", "result": 18.8846}, {"measurement": "PK curves", "setting": "Round 3, Time 1 Day, replicate 2", "result": 19.9794}, {"measurement": "PK curves", "setting": "Round 3, Time 1 Day, replicate 3", "result": 34.0857}, {"measurement": "PK curves", "setting": "Round 3, Time 1 Day, replicate 4", "result": 37.3031}, {"measurement": "PK curves", "setting": "Round 3, Time 1 Day, replicate 5", "result": 39.9731}, {"measurement": "PK curves", "setting": "Round 3, Time 2 Day, replicate 1", "result": 13.6659}, {"measurement": "PK curves", "setting": "Round 3, Time 2 Day, replicate 2", "result": 15.2182}, {"measurement": "PK curves", "setting": "Round 3, Time 2 Day, replicate 3", "result": 16.959}, {"measurement": "PK curves", "setting": "Round 3, Time 2 Day, replicate 4", "result": 18.4095}, {"measurement": "PK curves", "setting": "Round 3, Time 2 Day, replicate 5", "result": 23.265}, {"measurement": "PK curves", "setting": "Round 3, Time 3 Day, replicate 1", "result": 5.299}, {"measurement": "PK curves", "setting": "Round 3, Time 3 Day, replicate 2", "result": 5.6755}, {"measurement": "PK curves", "setting": "Round 3, Time 3 Day, replicate 3", "result": 6.127}, {"measurement": "PK curves", "setting": "Round 3, Time 3 Day, replicate 4", "result": 11.4512}, {"measurement": "PK curves", "setting": "Round 3, Time 3 Day, replicate 5", "result": 11.8082}, {"measurement": "AUC0-t", "setting": "Round 3", "result": "2847.475 ± 463.394", "unit": "ng·h/mL"}, {"measurement": "AUC0-∞", "setting": "Round 3", "result": "3060.689 ± 565.511", "unit": "ng·h/mL"}, {"measurement": "MRT0-t", "setting": "Round 3", "result": "17.779 ± 1.27", "unit": "h"}, {"measurement": "MRT0-∞", "setting": "Round 3", "result": "23.927 ± 3.854", "unit": "h"}, {"measurement": "T1/2z", "setting": "Round 3", "result": "19.193 ± 3.042", "unit": "h"}, {"measurement": "PK curves", "setting": "Round 4, Time 0.041667 Day, replicate 1", "result": 230.725}, {"measurement": "PK curves", "setting": "Round 4, Time 0.041667 Day, replicate 2", "result": 194.218}, {"measurement": "PK curves", "setting": "Round 4, Time 0.041667 Day, replicate 3", "result": 209.902}, {"measurement": "PK curves", "setting": "Round 4, Time 0.041667 Day, replicate 4", "result": 229.24}, {"measurement": "PK curves", "setting": "Round 4, Time 0.041667 Day, replicate 5", "result": 229.61}, {"measurement": "PK curves", "setting": "Round 4, Time 0.083333 Day, replicate 1", "result": 173.583}, {"measurement": "PK curves", "setting": "Round 4, Time 0.083333 Day, replicate 2", "result": 157.544}, {"measurement": "PK curves", "setting": "Round 4, Time 0.083333 Day, replicate 3", "result": 163.249}, {"measurement": "PK curves", "setting": "Round 4, Time 0.083333 Day, replicate 4", "result": 167.214}, {"measurement": "PK curves", "setting": "Round 4, Time 0.083333 Day, replicate 5", "result": 205.861}, {"measurement": "PK curves", "setting": "Round 4, Time 0.166667 Day, replicate 1", "result": 141.479}, {"measurement": "PK curves", "setting": "Round 4, Time 0.166667 Day, replicate 2", "result": 127.721}, {"measurement": "PK curves", "setting": "Round 4, Time 0.166667 Day, replicate 3", "result": 129.082}, {"measurement": "PK curves", "setting": "Round 4, Time 0.166667 Day, replicate 4", "result": 138.936}, {"measurement": "PK curves", "setting": "Round 4, Time 0.166667 Day, replicate 5", "result": 150.211}, {"measurement": "PK curves", "setting": "Round 4, Time 0.25 Day, replicate 1", "result": 117.333}, {"measurement": "PK curves", "setting": "Round 4, Time 0.25 Day, replicate 2", "result": 116.423}, {"measurement": "PK curves", "setting": "Round 4, Time 0.25 Day, replicate 3", "result": 120.111}, {"measurement": "PK curves", "setting": "Round 4, Time 0.25 Day, replicate 4", "result": 124.299}, {"measurement": "PK curves", "setting": "Round 4, Time 0.25 Day, replicate 5", "result": 125.432}, {"measurement": "PK curves", "setting": "Round 4, Time 0.333333 Day, replicate 1", "result": 69.1458}, {"measurement": "PK curves", "setting": "Round 4, Time 0.333333 Day, replicate 2", "result": 73.8277}, {"measurement": "PK curves", "setting": "Round 4, Time 0.333333 Day, replicate 3", "result": 84.2185}, {"measurement": "PK curves", "setting": "Round 4, Time 0.333333 Day, replicate 4", "result": 100.254}, {"measurement": "PK curves", "setting": "Round 4, Time 0.333333 Day, replicate 5", "result": 118.152}, {"measurement": "PK curves", "setting": "Round 4, Time 0.5 Day, replicate 1", "result": 43.1042}, {"measurement": "PK curves", "setting": "Round 4, Time 0.5 Day, replicate 2", "result": 47.0545}, {"measurement": "PK curves", "setting": "Round 4, Time 0.5 Day, replicate 3", "result": 50.0192}, {"measurement": "PK curves", "setting": "Round 4, Time 0.5 Day, replicate 4", "result": 54.418}, {"measurement": "PK curves", "setting": "Round 4, Time 0.5 Day, replicate 5", "result": 70.7604}, {"measurement": "PK curves", "setting": "Round 4, Time 1 Day, replicate 1", "result": 21.2271}, {"measurement": "PK curves", "setting": "Round 4, Time 1 Day, replicate 2", "result": 23.1099}, {"measurement": "PK curves", "setting": "Round 4, Time 1 Day, replicate 3", "result": 27.0861}, {"measurement": "PK curves", "setting": "Round 4, Time 1 Day, replicate 4", "result": 30.0884}, {"measurement": "PK curves", "setting": "Round 4, Time 1 Day, replicate 5", "result": 41.0104}, {"measurement": "PK curves", "setting": "Round 4, Time 2 Day, replicate 1", "result": 4.911}, {"measurement": "PK curves", "setting": "Round 4, Time 2 Day, replicate 2", "result": 16.8258}, {"measurement": "PK curves", "setting": "Round 4, Time 2 Day, replicate 3", "result": 17.3047}, {"measurement": "PK curves", "setting": "Round 4, Time 2 Day, replicate 4", "result": 21.1219}, {"measurement": "PK curves", "setting": "Round 4, Time 2 Day, replicate 5", "result": 21.2086}, {"measurement": "PK curves", "setting": "Round 4, Time 3 Day, replicate 1", "result": 3.457}, {"measurement": "PK curves", "setting": "Round 4, Time 3 Day, replicate 2", "result": 6.287}, {"measurement": "PK curves", "setting": "Round 4, Time 3 Day, replicate 3", "result": 7.344}, {"measurement": "PK curves", "setting": "Round 4, Time 3 Day, replicate 4", "result": 8.892}, {"measurement": "PK curves", "setting": "Round 4, Time 3 Day, replicate 5", "result": 12.3135}, {"measurement": "AUC0-t", "setting": "Round 4", "result": "2805.642 ± 501.797", "unit": "ng·h/mL"}, {"measurement": "AUC0-∞", "setting": "Round 4", "result": "3022.978 ± 666.243", "unit": "ng·h/mL"}, {"measurement": "MRT0-t", "setting": "Round 4", "result": "16.883 ± 2.739", "unit": "h"}, {"measurement": "MRT0-∞", "setting": "Round 4", "result": "22.801 ± 5.68", "unit": "h"}, {"measurement": "T1/2z", "setting": "Round 4", "result": "18.712 ± 5.773", "unit": "h"}]}]}
